Consider one molecule from article PMC3970815 (Biochemistry, 2014).

This assay addresses T1, fluorescein-labeled consensus propeptide (FpCon).
T1 peptide: fluorescein-AVFLSREQANQVLQRRRR
The assay can be described thus: fluorescence polarisation. In general terms: In fluorescence polarisation assays a small probe gives low polarisation when free and higher when bound to something large.

Ends that are not written are not given here. fluorescein = fluorescein label, on the N-terminus

B1: Wild-type human gamma-glutamyl carboxylase (GGCX) with a carboxyl-terminal 12-amino acid epitope tag, embedded in DOPC/MSP1D1 nanodiscs (enzyme, UniProt P38435 1-758, looked up)
chain: MAVSAGSARTSPSSDKVQKDKAELISGPRQDSRIGKLLGFEWTDLSSWRRLVTLLNRPTDPASLAVFRFLFGFLMVLDIPQERGLSSLDRKYLDGLDVCRFPLLDALRPLPLDWMYLVYTIMFLGALGMMLGLCYRISCVLFLLPYWYVFLLDKTSWNNHSYLYGLLAFQLTFMDANHYWSVDGLLNAHRRNAHVPLWNYAVLRGQIFIVYFIAGVKKLDADWVEGYSMEYLSRHWLFSPFKLLLSEELTSLLVVHWGGLLLDLSAGFLLFFDVSRSIGLFFVSYFHCMNSQLFSIGMFSYVMLASSPLFCSPEWPRKLVSYCPRRLQQLLPLKAAPQPSVSCVYKRSRGKSGQKPGLRHQLGAAFTLLYLLEQLFLPYSHFLTQGYNNWTNGLYGYSWDMMVHSRSHQHVKITYRDGRTGELGYLNPGVFTQSRRWKDHADMLKQYATCLSRLLPKYNVTEPQIYFDIWVSINDRFQQRIFDPRVDIVQAAWSPFQRTSWVQPLLMDLSPWRAKLQEIKSSLDNHTEVVFIADFPGLHLENFVSEDLGNTSIQLLQGEVTVELVAEQKNQTLREGEKMQLPAGEYHKVYTTSPSPSCYMYVYVNTTELALEQDLAYLQELKEKVENGSETGPLPPELQPLLEGEVKGGPEPTPLVQTFLRRQQRLQEIERRRNTPFHERFFRFLLRKLYVFRRSFLMTCISLRNLILGRPSLEQLAQEVTYANLRPFEAVGELNPSNTDSSHSNPPESNPDPVHSEF
modifications: glycoprotein (glycosylation sites shown in Figure 3); disulfide bond between cysteine 99 and cysteine 450
For the molecule B1, the “stoichiometry N” value is 1 propeptide per GGCX-nanodisc.
